Measurements published in patent US20180289802A1 (CELGENE, published 2018).

T1: murine PD-1 (mouse, UniProt Q02242 25-167, limits assumed)
T1 construct: also called mouse PD-1
T1 sequence (looked up): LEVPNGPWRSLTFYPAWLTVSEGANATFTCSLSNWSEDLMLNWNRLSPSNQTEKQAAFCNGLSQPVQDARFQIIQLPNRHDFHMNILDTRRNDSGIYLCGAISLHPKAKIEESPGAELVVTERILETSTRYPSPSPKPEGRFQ


How the values were obtained:
[1] = molecular target: T2, human PD-1 (soluble / purified antigen, construct not stated) (human, UniProt Q15116 25-170, limits assumed); test: KinExA, n = 2
T2 construct: also called soluble antigen
T2 sequence (Q15116 25-170 limits assumed): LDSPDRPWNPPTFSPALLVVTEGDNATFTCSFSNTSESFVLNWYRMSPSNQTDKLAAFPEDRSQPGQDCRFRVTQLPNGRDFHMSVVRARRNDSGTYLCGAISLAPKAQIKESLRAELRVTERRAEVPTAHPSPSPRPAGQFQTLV

[2] = molecular target: T3, human PD-1 expressed on cells (human, UniProt Q15116 25-198); test: cell-based or functional assay
T3 sequence (Q15116 25-198 limits assumed): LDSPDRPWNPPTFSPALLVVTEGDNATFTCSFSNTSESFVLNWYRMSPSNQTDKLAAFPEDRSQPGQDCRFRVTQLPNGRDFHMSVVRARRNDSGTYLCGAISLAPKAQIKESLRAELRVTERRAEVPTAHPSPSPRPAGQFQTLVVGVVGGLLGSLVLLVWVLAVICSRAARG

[3] = molecular target: T3, human PD-1 expressed on cells; test: cell-based or functional assay; remark: listed apart in the source
[4] = molecular target: T3, human PD-1 expressed on cells; test: cell-based or functional assay; remark: listed apart in the source
[5] = molecular target: T2, human PD-1 (soluble / purified antigen, …); test: Biacore (SPR), n = 4; Biacore, n = 4 (not KinExA 575 pM)
[6] = molecular target: T3, human PD-1 expressed on cells; test: competition with DyL650-PD-L1 for binding to cell surface human PD-1 (CHO), flow cytometry
[7] = molecular target: T2, human PD-1 (soluble / purified antigen, …); test: KinExA, n = 1
[8] = molecular target: T2, human PD-1 (soluble / purified antigen, …); test: Biacore (SPR), n = 2
murine PD-1 = molecular target: T1, murine PD-1; test: assay not described; stated in the discussion of the crystal structure

Binder | Kd [1] [nM] | CD4+ T cell IL-2 inhibition (EC50) [2] [nM] | IFN-γ EC50, PBMC reactivation assay [3] [nM] | IFN-γ EC75, PBMC reactivation assay [3] [nM] | IL-2 EC50, PBMC reactivation assay [3] [nM] | IL-2 EC75, PBMC reactivation assay [3] [nM] | IL-17 EC50, PBMC reactivation assay [3] [nM] | IL-17 EC75, PBMC reactivation assay [3] [nM] | IL-2 EC50, human whole blood assay [4] [nM] | hIFN-γ EC50, human whole blood assay [4] [nM] | hIL-17 EC50, human whole blood assay [4] [nM] | Kd [5] [nM] | IC50 [6] [nM] | Kd [7] [nM] | Kd [8] [nM] | binding result (murine PD-1)
PD1AB-1 (antibody, V domains shown, also called parental clone PD1AB-1; HC/LC TOPO vector 3015/3017) VH: EVQLVQSGAEVKKPGATVKISCKVSGFNIKDTYMHWVQQAPGKGLEWMGRIDPANGDRKYDPKFQGRVTITADTSTDTAYMELSSLRSEDTAVYYCARSGPVYYYGSSYVMDYWGQGTTVTVSS VL: DIVMTQSPDSLAVSLGERATINCKSGQSVLYSSNQKNFLAWYQQKPGQPPKLLIYWASTRESGVPDRFSGSGSGTDFTLTISSLQAEDVAVYYCHQYLYSWTFGQGTKLEIKR | 0.575 | 22 | 46 | 85 | 21 | 40 | 41 | 65 | 8.3 | 5.9 | 7.2 | 5 | > 100 |  |  | 
PD1AB-2 (antibody, V domains shown, also called HC/LC TOPO vector 3015/3193) VH: EVQLVQSGAEVKKPGATVKISCKVSGFNIKDTYMHWVQQAPGKGLEWMGRIDPANGDRKYDPKFQGRVTITADTSTDTAYMELSSLRSEDTAVYYCARSGPVYYYGSSYVMDYWGQGTTVTVSS VL: not shown |  | 27 | 58 | 91 | 24 | 42 | 36 | 59 | 8.4 | 7.6 | 8.9 |  | > 100 | 0.425 | 5 | 
PD1AB-3 (antibody, V domains shown, also called HC/LC TOPO vector 3653/3646) VH: EVQLVQSGAEVKKPGATVKISCKVSGFNIKDTYMHWVQQAPGKGLEWMGRIDPANGDRKYDPKFQGRVTITADTSTNTAYMELSSLRSEDTAVYYCARSGPVYYYGSSYVMDYWGQGTTVTVSS VL: DIVMTQSPDSLAVSLGERATINCKSGQSVLYSSNQKNFLAWYQQKPGQPPKLLIYWASTRESGVPDRFSGSGSGTDFTLTISNLQAEDVAVYYCHQYLYSWTFGQGTKLEIKR |  | 21 |  |  | 24 | 46 |  |  |  |  |  |  | > 100 | 0.35 | 7 | 
PD1AB-4 (antibody, V domains shown, also called HC/LC TOPO vector 3653/3193) VH: EVQLVQSGAEVKKPGATVKISCKVSGFNIKDTYMHWVQQAPGKGLEWMGRIDPANGDRKYDPKFQGRVTITADTSTNTAYMELSSLRSEDTAVYYCARSGPVYYYGSSYVMDYWGQGTTVTVSS VL: not shown |  | 23 | 34 | 64 | 20 | 39 | 27 | 52 | 10.2 | 9.2 | 9.9 |  | > 100 | 0.5 | 6 | 
PD1AB-5 (antibody, V domains shown, also called HC/LC TOPO vector 3650/3193) VH: EVQLVQSGAEVKKPGATVKISCKASGFNIKDTYMHWVQQAPGKGLEWMGRIDPANGDRKYDPKFQGRVTITADTSTDTAYMELSSLRSEDTAVYYCARSGPVYYYGSSYVMDYWGQGTTVTVSS VL: not shown |  | 15 |  |  | 36 | 58 |  |  |  |  |  |  | > 100 | 0.4 | 6 | 
PD1AB-6 (antibody, IgG1, V domains shown, also called HC/LC TOPO vector 3650/3017) VH: EVQLVQSGAEVKKPGATVKISCKASGFNIKDTYMHWVQQAPGKGLEWMGRIDPANGDRKYDPKFQGRVTITADTSTDTAYMELSSLRSEDTAVYYCARSGPVYYYGSSYVMDYWGQGTTVTVSS VL: DIVMTQSPDSLAVSLGERATINCKSGQSVLYSSNQKNFLAWYQQKPGQPPKLLIYWASTRESGVPDRFSGSGSGTDFTLTISSLQAEDVAVYYCHQYLYSWTFGQGTKLEIKR |  | 16 | 36 | 67 | 24 | 33 | 37 | 56 | 4 | 4.1 | 3.6 |  | > 100 | 0.45 | 6 | no binding
